This passage reports glucose level of adult S. japonicum worms cultured 24 h with 20% anti-LD1 + anti-LD2 mouse antisera (medium with foetal bovine serum as source of insulin; endogenous receptors), against normal serum results from paper PMC2844434.

The assay deals with Human pro-insulin fused to the Gal4 DNA binding domain (human).
Human pro-insulin fused to the Gal4 DNA binding domain (human), sequence (P01308 25-110): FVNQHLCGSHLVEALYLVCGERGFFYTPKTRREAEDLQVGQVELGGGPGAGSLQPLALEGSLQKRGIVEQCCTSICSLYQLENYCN

Turning to “Ligand domain of Schistosoma japonicum insulin receptor 1 (SjIR-1), D59 to E411 (domain or fragment)”, the glucose level of adult S. japonicum worms cultured 24 h with 20% anti-LD1 + anti-LD2 mouse antisera (medium with foetal bovine serum as source of insulin; endogenous receptors), against normal serum stood at 65 % reduction. On to “Ligand domain of Schistosoma japonicum insulin receptor 2 (SjIR-2), Q7 to K399 (domain or fragment)”, for which the glucose level of adult S. japonicum worms cultured 24 h with 20% anti-LD1 + anti-LD2 mouse antisera (medium with foetal bovine serum as source of insulin; endogenous receptors), against normal serum stood at 65 % reduction.
